Data as given in IntAct's records for PubMed 28424519.

B1: Transcription regulatory protein SNF2 (Saccharomyces cerevisiae), P22082 (parent)
chain: MNIPQRQFSNEEVNRCYLRWQHLRNEHGMNAPSVPEFIYLTKVLQFAAKQRQELQMQRQQQGISGSQQNIVPNSSDQAELPNNASSHISASASPHLAPNMQLNGNETFSTSAHQSPIMQTQMPLNSNGGNNMLPQRQSSVGSLNATNFSPTPANNGENAAEKPDNSNHNNLNLNNSELQPQNRSLQEHNIQDSNVMPGSQINSPMPQQAQMQQAQFQAQQAQQAQQAQQAQQAQARLQQGRRLPMTMFTAEQSELLKAQITSLKCLVNRKPIPFEFQAVIQKSINHPPDFKRMLLSLSEFARRRQPTDQNNQSNLNGGNNTQQPGTNSHYNNTNTDNVSGLTRNAPLDSKDENFASVSPAGPSSVHNAKNGTLDKNSQTVSGTPITQTESKKEENETISNVAKTAPNSNKTHTEQNNPPKPQKPVPLNVLQDQYKEGIKVVDIDDPDMMVDSFTMPNISHSNIDYQTLLANSDHAKFTIEPGVLPVGIDTHTATDIYQTLIALNLDTTVNDCLDKLLNDECTESTRENALYDYYALQLLPLQKAVRGHVLQFEWHQNSLLTNTHPNFLSKIRNINVQDALLTNQLYKNHELLKLERKKTEAVARLKSMNKSAINQYNRRQDKKNKRLKFGHRLIATHTNLERDEQKRAEKKAKERLQALKANDEEAYIKLLDQTKDTRITHLLRQTNAFLDSLTRAVKDQQKYTKEMIDSHIKEASEEVDDLSMVPKMKDEEYDDDDDNSNVDYYNVAHRIKEDIKKQPSILVGGTLKDYQIKGLQWMVSLFNNHLNGILADEMGLGKTIQTISLLTYLYEMKNIRGPYLVIVPLSTLSNWSSEFAKWAPTLRTISFKGSPNERKAKQAKIRAGEFDVVLTTFEYIIKERALLSKVKWVHMIIDEGHRMKNAQSKLSLTLNTHYHADYRLILTGTPLQNNLPELWALLNFVLPKIFNSVKSFDEWFNTPFANTGGQDKIELSEEETLLVIRRLHKVLRPFLLRRLKKDVEKELPDKVEKVVKCKMSALQQIMYQQMLKYRRLFIGDQNNKKMVGLRGFNNQIMQLKKICNHPFVFEEVEDQINPTRETNDDIWRVAGKFELLDRILPKLKATGHRVLIFFQMTQIMDIMEDFLRYINIKYLRLDGHTKSDERSELLRLFNAPDSEYLCFILSTRAGGLGLNLQTADTVIIFDTDWNPHQDLQAQDRAHRIGQKNEVRILRLITTNSVEEVILERAYKKLDIDGKVIQAGKFDNKSTSEEQEALLRSLLDAEEERRKKRESGVEEEEELKDSEINEILARNDEEMAVLTRMDEDRSKKEEELGVKSRLLEKSELPDIYSRDIGAELKREESESAAVYNGRGARERKTATYNDNMSEEQWLRQFEVSDDEKNDKQARKQRTKKEDKSEAIDGNGEIKGENIDADNDGPRINNISAEDRADTDLAMNDDDFLSKKRKAGRPRGRPKKVKLEGSENSEPPALESSPVTGDNSPSEDFMDIPKPRTAGKTSVKSARTSTRGRGRGRGRGRGRGRGRGRPPKARNGLDYVRTPAAATSPIDIREKVAKQALDLYHFALNYENEAGRKLSDIFLSKPSKALYPDYYMIIKYPVAFDNINTHIETLAYNSLKETLQDFHLIFSNARIYNTEGSVVYEDSLELEKVVTKKYCEIMGDNSQLDFTEFDEQYGTRPLVLPPVVTSSVAESFTDEADSSMTEASV

Variants of: B1
Conditions: with h4_yeast HHF1, P02309
E1069K;D1121K was tested, and the “effect of a mutation on the interaction” value was “disrupting interaction”.
